This note sets out measurements from patent publication US20040048327.

Data set [1] concerns T1, Cbz-Ala-Ala-NHN(CH2COOEt)-trans-EP-COOEt.
T1 sequence: AAD

The subject of data set [2] is T2, Ac-Leu-ALeu-trans-EP-COOEt.
T2 sequence: LL

Data set [3] relates to T3, Boc-Np2-ALeu-trans-EP-COOEt.
T3 sequence: XL

Data set [4] concerns T4, Cbz-Leu-Phe-AGln-(2S, 3S)-EP-COOEt.
T4 sequence: LFQ

The test system of data set [5] is T5, Cbz-Leu-Phe-AGln-(2R, 3R)-EP-COOEt.
T5 sequence: LFQ

Data set [6] relates to T6, Cbz-Leu-Glu-Thr-AAsp-(2S, 3S)-EP-COOEt.
T6 sequence: LETD

The test system of data set [7] is T7, Cbz-Asp-Glu-Val-AAsp-(2S, 3S)-EP-COOEt.
T7 sequence: DEVD

Data set [8] relates to T8, Cbz-Ala-Ala-AAsn-(2R, 3R)-EP-COOEt.
T8 sequence: AAN

Data set [9] relates to T9, Cbz-Ala-Ala-AAsn-trans-EP-COOCH2Ph.
T9 sequence: AAN

In data set [10] the test system is T10, Cbz-Leu-AHph-(2R, 3R)-EP-COOEt.
T10 sequence: LX

Data set [11] deals with T11, Cbz-Leu-Leu-ALeu-(2S, 3S)-EP-COOEt.
T11 sequence: LLL

The test system of data set [12] is T12, Cbz-Ile-Glu-Thr-AAsp-(2S, 3S)-EP-COOEt.
T12 sequence: IETD

Data set [13] relates to T13, Cbz-Leu-ALeu-(2S, 3S)-EP-COOEt.
T13 sequence: LL

The test system of data set [14] is T14, PhPr-Val-Ala-AAsp-trans-EP-CH2CH2Ph.
T14 sequence: VAD

The subject of data set [15] is T15, Cbz-APhe-trans-EP-COOEt.
T15 sequence: F

Data set [16] deals with T16, Cbz-Phe-APhe-trans-EP-CH2CH2Ph.
T16 sequence: FF

For data set [17], the system named is T17, Cbz-Ala-Ala-AAsn-(2S, 3S)-EP-COOEt.
T17 sequence: AAN

Data set [18] concerns T18, Cbz-Ala-Ala-AAsn-trans-EP-COOEt.
T18 sequence: AAN

Data set [19] relates to T19, Cbz-Asp-Glu-Val-AAsp-(2R, 3R)-EP-COOEt.
T19 sequence: DEVD

Data set [20] relates to T20, Cbz-Leu-Leu-ALeu-(2R, 3R)-EP-COOEt.
T20 sequence: LLL

The subject of data set [21] is T21, PhPr-Val-Ala-AAsp-(2R, 3R)-EP-COOCH2Ph.
T21 sequence: VAD

Data set [22] deals with T22, Cbz-Ala-Ala-AAsn-cis-EP-COOEt.
T22 sequence: AAN

Data set [23] has as its system T23, Cbz-Leu-AHph-(2S, 3S)-EP-COOEt.
T23 sequence: LX

For data set [24], the system named is T24, Cbz-Leu-AAbu-trans-EP-COOH.
T24 sequence: LX

The test system of data set [25] is T25, Cbz-AHph-trans-EP-COOEt.
T25 sequence: X

The test system of data set [26] is T26, Cbz-Leu-ALeu-trans-EP-COOEt.
T26 sequence: LL

In data set [27] the test system is T27, Boc-Nva-AHph-trans-EP-COOEt.
T27 sequence: XX

For data set [28], the system named is T28, Cbz-Phe-ALeu-trans-EP-COOEt.
T28 sequence: FL

Data set [29] relates to T29, Cbz-Leu-Leu-ALeu-trans-EP-COOEt.
T29 sequence: LLL

The subject of data set [30] is T30, PhPr-Val-Ala-AAsp-trans-EP-COOCH2Ph.
T30 sequence: VAD

Data set [31] has as its system T31, PhPr-Val-Ala-AAsp-(2S, 3S)-EP-COOCH2Ph.
T31 sequence: VAD

Data set [32] relates to T32, Boc-Abu-AHph-trans-EP-CH2CH2Ph.
T32 sequence: XX

Data set [33] deals with T33, Suc-Np2-ALeu-trans-EP-COOEt.
T33 sequence: XL

Data set [34] concerns T34, Cbz-Leu-AHph-cis-EP-COOEt.
T34 sequence: LX

The test system of data set [35] is T35, Cbz-Phe-ALeu-trans-EP-CH2CH2Ph.
T35 sequence: FL

Data set [36] concerns T36, Boc-Nle-AHph-trans-EP-CH2CH2Ph.
T36 sequence: XX

Data set [37] deals with T37, Cbz-Leu-ALeu-(2R, 3R)-EP-COOEt.
T37 sequence: LL

For data set [38], the system named is T38, Cbz-Leu-ALeu-cis-EP-COOEt.
T38 sequence: LL

For data set [39], the system named is T39, Cbz-Leu-Leu-ALeu-(2S, 3S)-EP-COOH.
T39 sequence: LLL

Data set [40] concerns T40, Cbz-ALeu-trans-EP-COOEt.
T40 sequence: L

For data set [41], the system named is T41, Cbz-Leu-Phe-AGln-trans-EP-COOEt.
T41 sequence: LFQ

Data set [42] deals with T42, Cbz-Leu-Glu-Thr-AAsp-(2R, 3R)-EP-COOEt.
T42 sequence: LETD

The subject of data set [43] is T43, Ac-AHph-trans-EP-COOEt.
T43 sequence: X

Data set [44] concerns T44, Ac-Leu-AHph-trans-EP-COOEt.
T44 sequence: LX

Data set [45] concerns T45, Boc-Nle-AHph-trans-EP-COOEt.
T45 sequence: XX

Data set [46] has as its system T46, Nle-AHph-trans-EP-COOEt.TFA.
T46 sequence: XX

Data set [47] relates to T47, Nva-AHph-trans-EP-COOEt.TFA.
T47 sequence: XX

The test system of data set [48] is T48, Nva-AHph-trans-EP-CH2CH2Ph.TFA.
T48 sequence: XX

Data set [49] deals with T49, Cbz-Leu-AAbu-trans-EP-COOEt.
T49 sequence: LX

Data set [50] has as its system T50, Cbz-Leu-AHph-(2S, 3S)-EP-COOH.
T50 sequence: LX

Where only a bound is given, the exact number is not on record here.

Turning to cathepsin B, the kobs/[I] was 2.53 M⁻¹ s⁻¹ in data set [1]; 8 M⁻¹ s⁻¹ in [2]; 0.39 M⁻¹ s⁻¹ in data set [3]; 4.73 M⁻¹ s⁻¹ in data set [4]; “NI” in [5]; “NI” in data set [6]. Further, the “kobs/[I]” value in data set [7] is “NI”; in [8], “NI”; in data set [9] it was 1.09 M⁻¹ s⁻¹; in [10], “NI”; in data set [11], 0.98 M⁻¹ s⁻¹; in [12] it was “NI”. The kobs/[I] is 1.8 M⁻¹ s⁻¹ in [13]; “NI” in data set [14]; 1.8 M⁻¹ s⁻¹ in data set [15]; “NI” in data set [16]; 6 M⁻¹ s⁻¹ in data set [17]; 1.27 M⁻¹ s⁻¹ in data set [18]. For the same substance, the “kobs/[I]” value in data set [19] is “NI”; in data set [20] it was “NI”; in data set [21] it was “NI”; in [22], “NI”; in data set [23], 0.67 M⁻¹ s⁻¹; in [24] it was “NI”. Moreover, the kobs/[I] in data set [25] is 8.91 M⁻¹ s⁻¹; in [26] it was 23.3 M⁻¹ s⁻¹; in data set [27], 2.7 M⁻¹ s⁻¹; in data set [28], 3.61 M⁻¹ s⁻¹; in data set [29] it was “NI”; in data set [30], less than 10 M⁻¹ s⁻¹. Besides, the kobs/[I] in data set [31] is 0.81 M⁻¹ s⁻¹; in data set [32], “NI”; in [33], 0.8 M⁻¹ s⁻¹; in [34], “NI”; in data set [35] it was “NI”; in [36], “NI”. In addition, the “kobs/[I]” value in [37] is “NI”; in data set [38] it was 6.27 M⁻¹ s⁻¹; in data set [39] it was 7.02 M⁻¹ s⁻¹; in data set [40] it was 4.43 M⁻¹ s⁻¹; in data set [41], 1.3 M⁻¹ s⁻¹; in [42], “NI”. Also, the kobs/[I] in [43] was found to be 40.6 M⁻¹ s⁻¹; in data set [44], 0.59 M⁻¹ s⁻¹; in [45] it was 1.3 M⁻¹ s⁻¹.

Take dipeptidyl peptidase I: the kobs/[I] came out at 8.2 M⁻¹ s⁻¹ in data set [46]; 3.2 M⁻¹ s⁻¹ in data set [47]; 0.1 M⁻¹ s⁻¹ in [48]; 0.5 M⁻¹ s⁻¹ in [27]; 0.7 M⁻¹ s⁻¹ in [45].

For the substance calpain, the kobs/[I] in data set [2] is 1.48 M⁻¹ s⁻¹; in data set [10] it was 2.12 M⁻¹ s⁻¹; in data set [11], 2.48 M⁻¹ s⁻¹; in [13], 8.58 M⁻¹ s⁻¹; in [20], “NI”; in [49] it was 1.98 M⁻¹ s⁻¹. For the same substance, the kobs/[I] worked out at 2.12 M⁻¹ s⁻¹ in [50]; 2.28 M⁻¹ s⁻¹ in data set [23]; 0.57 M⁻¹ s⁻¹ in [24]; 2.44 M⁻¹ s⁻¹ in data set [25]; 3.09 M⁻¹ s⁻¹ in [26]; 2.65 M⁻¹ s⁻¹ in data set [29]. Further, the kobs/[I] in [34] was 1.09 M⁻¹ s⁻¹; in [37], 1.45 M⁻¹ s⁻¹; in data set [38], 1.88 M⁻¹ s⁻¹; in data set [39], 0.82 M⁻¹ s⁻¹; in data set [40], 1.75 M⁻¹ s⁻¹; in data set [43], 1.29 M⁻¹ s⁻¹. The substance further had a kobs/[I] in [44] of 0.84 M⁻¹ s⁻¹.

On to chymotrypsin, for which the “kobs/[I]” value in data set [6], in data set [7], in data set [8], in data set [14], in data set [17] and in [18] was “NI” in each case. Further, the “kobs/[I]” value in data set [19], in data set [22], in data set [30] and in data set [42] was “NI” throughout.
